T1: human GIP receptor (human) (UniProt P48546)
T1 sequence (looked up): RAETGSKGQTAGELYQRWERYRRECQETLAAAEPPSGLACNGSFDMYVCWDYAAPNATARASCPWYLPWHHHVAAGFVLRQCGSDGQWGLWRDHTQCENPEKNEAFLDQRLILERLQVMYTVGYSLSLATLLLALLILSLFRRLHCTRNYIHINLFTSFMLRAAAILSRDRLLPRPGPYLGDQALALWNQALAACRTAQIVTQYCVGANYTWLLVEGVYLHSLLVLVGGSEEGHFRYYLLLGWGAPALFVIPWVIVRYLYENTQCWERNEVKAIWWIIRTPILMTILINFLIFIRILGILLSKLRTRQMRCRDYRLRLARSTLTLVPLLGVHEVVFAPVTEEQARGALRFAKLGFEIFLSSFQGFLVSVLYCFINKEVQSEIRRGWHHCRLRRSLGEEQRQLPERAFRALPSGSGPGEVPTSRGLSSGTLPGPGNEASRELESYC


Legend:
Assay in all cases: cell-based or functional assay
[1] = biological target: human glucagon receptor (human) (UniProt P47871)
hGLP-1R = hGLP-1R (Homo sapiens, UniProt P43220)
[2] = biological target: T1, human GIP receptor (human)

Sequence of hGLP-1R (P43220 24-463): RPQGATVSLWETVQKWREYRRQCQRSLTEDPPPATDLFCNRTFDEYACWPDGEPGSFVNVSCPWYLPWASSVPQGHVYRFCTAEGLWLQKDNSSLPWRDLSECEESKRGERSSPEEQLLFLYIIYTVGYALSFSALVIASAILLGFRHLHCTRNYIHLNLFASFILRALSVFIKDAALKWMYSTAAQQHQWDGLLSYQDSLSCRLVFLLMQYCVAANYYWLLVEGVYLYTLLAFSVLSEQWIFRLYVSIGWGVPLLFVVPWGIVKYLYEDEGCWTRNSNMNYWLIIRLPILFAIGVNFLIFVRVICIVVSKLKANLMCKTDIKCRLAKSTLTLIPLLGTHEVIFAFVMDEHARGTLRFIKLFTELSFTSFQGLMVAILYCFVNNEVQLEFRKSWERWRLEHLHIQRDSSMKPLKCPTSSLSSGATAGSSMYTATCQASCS
Sequence of human glucagon receptor (human) (P47871 26-477): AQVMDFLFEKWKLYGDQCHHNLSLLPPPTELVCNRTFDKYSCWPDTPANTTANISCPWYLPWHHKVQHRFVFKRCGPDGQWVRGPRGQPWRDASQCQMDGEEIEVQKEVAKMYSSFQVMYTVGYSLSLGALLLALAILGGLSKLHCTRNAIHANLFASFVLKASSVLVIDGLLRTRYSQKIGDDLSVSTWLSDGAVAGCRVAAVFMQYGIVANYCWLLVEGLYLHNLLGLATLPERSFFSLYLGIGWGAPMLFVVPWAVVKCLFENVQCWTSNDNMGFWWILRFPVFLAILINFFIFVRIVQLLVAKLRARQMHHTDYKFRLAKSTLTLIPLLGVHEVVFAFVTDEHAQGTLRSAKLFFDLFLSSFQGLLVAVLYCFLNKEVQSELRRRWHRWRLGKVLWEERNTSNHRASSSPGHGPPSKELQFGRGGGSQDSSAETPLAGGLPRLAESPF

Binder	Relative cAMP EC50 [1]	cAMP Rel EC50 (1% HSA) [1]	Relative cAMP EC50 (hGLP-1R)	cAMP Rel EC50 (1% HSA) (hGLP-1R)	Relative cAMP EC50 [2]	cAMP Rel EC50 (1% HSA) [2]	cAMP Rel EC50, nM (in the presence of 1% HSA) [1]	cAMP Rel EC50, nM (in the presence of 1% HSA) (hGLP-1R)	cAMP Rel EC50, nM (in the presence of 1% HSA) [2]
YXQGTFTSDXSQXLDXKAQXAFIEXLLAGGPSSGAPPPSGSEEE (Lys acylated γGlu-C18 diacid; non-natural residues; C-amide; synthetic construct; SITE 2: note = 2-Aminoisobutyric Acid; SITE 10: note = 3-(4-Pyridyl)-L-alanine; SITE 13: note = alpha-methyl-leucine; SITE 16: note = L-ornithine; SITE 17: note = Lysine is chemically modified through conjugation of the epsilon-amino group of the Lysine side chain with D-Glutami) [Example 1082]	12.3 nM	1530 nM	4.13 nM	677 nM	0.099 nM	12.3 nM			
YXQGTFTSDXSQXLDXKAQXAFIQXLLEGGPSSGAPPPSGSEEE (Aib, 4Pal, Orn, Me4Pal, αMeY; acylated lysine; amide; synthetic construct; SITE 2: note = 2-Aminoisobutyric Acid; SITE 10: note = 3-(4-Pyridyl)-L-alanine; SITE 13: note = alpha-methyl-leucine; SITE 16: note = L-ornithine; SITE 17: note = Lysine is chemically modified through conjugation of the epsilon-amino group of the Lysine side chain with D-Glutami) [Example 1083]	15 nM	1030 nM	7.76 nM	547 nM	0.328 nM	20.5 nM			
YXQGTFTSDXSQXLDXKAQXQFIEXLLAGGPSSGAPPPSGSEEE (Lys acylated γGlu-C18 diacid; non-natural residues; C-terminal amide; synthetic construct; SITE 2: note = 2-Aminoisobutyric Acid; SITE 10: note = 3-(4-Pyridyl)-L-alanine; SITE 13: note = alpha-methyl-leucine; SITE 16: note = L-ornithine; SITE 17: note = Lysine is chemically modified through conjugation of the epsilon-amino group of the Lysine side chain with D-Glutami) [Example 1084]	11.5 nM	1390 nM	10.3 nM	761 nM	0.0975 nM	17.2 nM			
YXQGTFTSDXSQXLDKKAQXAFIEYLIAGGPSSGAPPPSGEEE (Aib, 4Pal, αMeL, Me4Pal, acylated K, C-terminal amide; synthetic construct; SITE 2: note = 2-Aminoisobutyric Acid; SITE 10: note = 3-(4-Pyridyl)-L-alanine; SITE 13: note = alpha-methyl-leucine; SITE 17: note = Lysine is chemically modified through conjugation of the epsilon-amino group of the Lysine side chain with D-Glutamic acid-(gamma-Glu)-CO-(CH2)16) [Example 1088]	14.8 nM	1710 nM	2.99 nM	367 nM	0.182 nM	15.6 nM			
YXQGTFTSDXSQXLDKKAQXAFIEYLIAGGPSSGAPPPSGEEE (acylated Lys, C-terminal amide, non-natural residues; synthetic construct; SITE 2: note = 2-Aminoisobutyric Acid; SITE 10: note = 3-(4-Pyridyl)-L-alanine; SITE 13: note = alpha-methyl-leucine; SITE 17: note = Lysine is chemically modified through conjugation of the epsilon-amino group of the Lysine side chain with (Glu)2-(gamma-Glu)-CO-(CH2)16-CO2H; SI) [Example 1090]	15.6 nM	2010 nM	5.44 nM	619 nM	0.272 nM	27.3 nM			
YXQGTFTSDXSQXLDXKAQXAFIEXLIAXGPSSGEPPPSGSEE (non-natural residues (Aib, 4Pal, Orn, Me4Pal, αMeY); lipidated K; amide; synthetic construct; SITE 2: note = 2-Aminoisobutyric Acid; SITE 10: note = 3-(4-Pyridyl)-L-alanine; SITE 13: note = alpha-methyl-leucine; SITE 16: note = L-ornithine; SITE 17: note = Lysine is chemically modified through conjugation of the epsilon-amino group of the Lysine side chain with (gamma-Gl)) [Example 1094]	5.84 nM	831 nM	0.623 nM	64.4 nM	0.0515 nM	5.86 nM			
YXQGTFTSDXSQXLDXKAQXAFIEYLIAXGPSSGAPPPSGSEE (non-natural residues; acylated Lys C18 diacid; C-term amide; synthetic construct; SITE 2: note = 2-Aminoisobutyric Acid; SITE 10: note = 3-(4-Pyridyl)-L-alanine; SITE 13: note = alpha-methyl-leucine; SITE 16: note = L-ornithine; SITE 17: note = Lysine is chemically modified through conjugation of the epsilon-amino group of the Lysine side chain with (gamma-Gl)) [Example 1091]	4.67 nM	550 nM	1.23 nM	145 nM	0.0592 nM	5.79 nM			
YXQGTFTSDXSQXLDKKAQXAFIEYLIAGGPSSGAPPPSGEEE (non-natural residues; acylated Lys; C-terminal amide; synthetic construct; SITE 2: note = 2-Aminoisobutyric Acid; SITE 10: note = 3-(4-Pyridyl)-L-alanine; SITE 13: note = alpha-methyl-leucine; SITE 17: note = Lysine is chemically modified through conjugation of the epsilon-amino group of the Lysine side chain with (Glu)-(gamma-Glu)-CO-(CH2)16-CO2H; SIT) [Example 1089]	14 nM	2580 nM	2.96 nM	449 nM	0.213 nM	34.6 nM			
YXQGTFTSDXSQXLDXKAQXAFIEYLIAXGPSSGEPPPSGSEE (non-natural residues; lipidated Lys; C-terminal amide; synthetic construct; SITE 2: note = 2-Aminoisobutyric Acid; SITE 10: note = 3-(4-Pyridyl)-L-alanine; SITE 13: note = alpha-methyl-leucine; SITE 16: note = L-ornithine; SITE 17: note = Lysine is chemically modified through conjugation of the epsilon-amino group of the Lysine side chain with D-Glutami) [Example 1101]	4.72 nM	827 nM	1.75 nM	246 nM	0.0592 nM	6.31 nM			
YXQGTFTSDXSQXLDXKAQXAFIEYLIAXGPSSGEPPPSGSEE (non-natural residues, C-terminal amide, acylated Lys with fatty diacid; synthetic construct; SITE 2: note = 2-Aminoisobutyric Acid; SITE 10: note = 3-(4-Pyridyl)-L-alanine; SITE 13: note = alpha-methyl-leucine; SITE 16: note = L-ornithine; SITE 17: note = Lysine is chemically modified through conjugation of the epsilon-amino group of the Lysine side chain with (2-[2-(2-) [Example 1095]	2.75 nM	337 nM	1.17 nM	159 nM	0.065 nM	8.73 nM			
YXQGTFTSDXSQXLDXKAQXAFIEXLIAXGPSSGEPPPSGSEE (Non-natural residues; K acylated AEEA-γGlu-C18 diacid; C-terminal amide; synthetic construct; SITE 2: note = 2-Aminoisobutyric Acid; SITE 10: note = 3-(4-Pyridyl)-L-alanine; SITE 13: note = alpha-methyl-leucine; SITE 16: note = L-ornithine; SITE 17: note = Lysine is chemically modified through conjugation of the epsilon-amino group of the Lysine side chain with (2-[2-(2-) [Example 1099]	3.47 nM	472 nM	0.73 nM	75.8 nM	0.076 nM	8.64 nM			
YXQGTFTSDXSQXLDXKAQXAFIEYLIQXGPSSGEPPPSGSEE (non-natural residues; lipidated Lys AEEA-γGlu-C18 diacid; C-term amide; synthetic construct; SITE 2: note = 2-Aminoisobutyric Acid; SITE 10: note = 3-(4-Pyridyl)-L-alanine; SITE 13: note = alpha-methyl-leucine; SITE 16: note = L-ornithine; SITE 17: note = Lysine is chemically modified through conjugation of the epsilon-amino group of the Lysine side chain with (2-[2-(2-) [Example 1096]	3.94 nM	397 nM	1.47 nM	194 nM	0.0799 nM	11.6 nM			
YXQGTFTSDXSQXLDXKAQXAFIEYLIAXGPSSGEPPPSGSEE (non-natural residues, acylated Lys ((γGlu)2-C18 diacid), C-terminal amide; synthetic construct; SITE 2: note = 2-Aminoisobutyric Acid; SITE 10: note = 3-(4-Pyridyl)-L-alanine; SITE 13: note = alpha-methyl-leucine; SITE 16: note = L-ornithine; SITE 17: note = Lysine is chemically modified through conjugation of the epsilon-amino group of the Lysine side chain with (gamma-Gl)) [Example 1092]	3.45 nM	506 nM	1.33 nM	230 nM	0.0648 nM	7.83 nM			
YXQGTFTSDXSQXLDKKAQXAFIEYLIAGGPSSGAPPPSGE (non-natural residues; lipidated Lys; C-terminal amide; synthetic construct; SITE 2: note = 2-Aminoisobutyric Acid; SITE 10: note = 3-(4-Pyridyl)-L-alanine; SITE 13: note = alpha-methyl-leucine; SITE 17: note = Lysine is chemically modified through conjugation of the epsilon-amino group of the Lysine side chain with D-Glutamic acid-(gamma-Glu)-CO-(CH2)16) [Example 1085]	11.6 nM	1370 nM	1.28 nM	188 nM	0.0827 nM	9.84 nM			
YXQGTFTSDXSQXLDKKAQXAFIEYLIAGGPSSGAPPPSGE (Aib, 4Pal, αMeL, Me4Pal; acylated lysine; amide; synthetic construct; SITE 2: note = 2-Aminoisobutyric Acid; SITE 10: note = 3-(4-Pyridyl)-L-alanine; SITE 13: note = alpha-methyl-leucine; SITE 17: note = Lysine is chemically modified through conjugation of the epsilon-amino group of the Lysine side chain with (Glu)2-(gamma-Glu)-CO-(CH2)16-CO2H; SI) [Example 1087]	15.4 nM	2460 nM	2.63 nM	439 nM	0.207 nM	23.3 nM			
YXQGTFTSDXSQXLDKKAQXAFIEYLIAGGPSSGAPPPSGE (Aib, 4Pal, αMeL, Me4Pal; acylated K; C-terminal amide; synthetic construct; SITE 2: note = 2-Aminoisobutyric Acid; SITE 10: note = 3-(4-Pyridyl)-L-alanine; SITE 13: note = alpha-methyl-leucine; SITE 17: note = Lysine is chemically modified through conjugation of the epsilon-amino group of the Lysine side chain with (Glu)-(gamma-Glu)-CO-(CH2)16-CO2H; SIT) [Example 1086]	12 nM	3140 nM	1.23 nM	496 nM	0.117 nM	21.2 nM			
YXQGTFTSDXSQXLDXKAQXAFIEXLIEXGPSSGEPPPSGSEE (non-natural residues, C18 diacid-(γGlu)2 acyl on K, C-terminal amide; synthetic construct; SITE 2: note = 2-Aminoisobutyric Acid; SITE 10: note = 3-(4-Pyridyl)-L-alanine; SITE 13: note = alpha-methyl-leucine; SITE 16: note = L-ornithine; SITE 17: note = Lysine is chemically modified through conjugation of the epsilon-amino group of the Lysine side chain with (gamma-Gl)) [Example 1093]	7.72 nM	958 nM	0.954 nM	141 nM	0.152 nM	26.8 nM			
YXQGTFTSDXSQXLDXKAQXQFIEXLIAXGPSSGEPPPSGSEE (non-natural residues; lysine acylated AEEA-γGlu-C18 diacid; C-terminal amide; synthetic construct; SITE 2: note = 2-Aminoisobutyric Acid; SITE 10: note = 3-(4-Pyridyl)-L-alanine; SITE 13: note = alpha-methyl-leucine; SITE 16: note = L-ornithine; SITE 17: note = Lysine is chemically modified through conjugation of the epsilon-amino group of the Lysine side chain with (2-[2-(2-) [Example 1100]	5.28 nM	577 nM	0.514 nM	77.2 nM	0.0694 nM	9.04 nM			
YXQGTFTSDXSQXLDXKAQXQFIEXLIEXGPSSGEPPPSGSEE (Aib, 4Pal, Orn, αMeL, Me4Pal, αMeY, acylated Lys, amide; synthetic construct; SITE 2: note = 2-Aminoisobutyric Acid; SITE 10: note = 3-(4-Pyridyl)-L-alanine; SITE 13: note = alpha-methyl-leucine; SITE 16: note = L-ornithine; SITE 17: note = Lysine is chemically modified through conjugation of the epsilon-amino group of the Lysine side chain with (2-[2-(2-) [Example 1098]	6.2 nM	994 nM	1.22 nM	184 nM	0.201 nM	31.2 nM			
YXQGTFTSDXSQXLDXKAQXAFIEXLIEXGPSSGEPPPSGSEE (AEEA-γGlu-C18 diacid on Lys; non-natural residues; amide; synthetic construct; SITE 2: note = 2-Aminoisobutyric Acid; SITE 10: note = 3-(4-Pyridyl)-L-alanine; SITE 13: note = alpha-methyl-leucine; SITE 16: note = L-ornithine; SITE 17: note = Lysine is chemically modified through conjugation of the epsilon-amino group of the Lysine side chain with (2-[2-(2-) [Example 1097]	6.16 nM	752 nM	1.59 nM	141 nM	0.136 nM	27.3 nM			
YXQGTFTSDFSXXLDKKAQXAFIEWLLEGGXSSGAPPPSGE (synthetic construct; SITE 2: note = 2-Aminoisobutyric Acid; SITE 12: note = L-ornithine; SITE 13: note = alpha-methyl-leucine; SITE 17: note = Lysine is chemically modified through conjugation of the epsilon-amino group of the Lysine side chain with (2-[2-(2-Amino-ethoxy)-ethoxy]-acetyl)-(gamma-Glu)) [Example 104]	7.58 nM		3.39 nM		0.251 nM		1260 nM	698 nM	97.5 nM

From patent US20240270821A1, “GIP/GLP1/GCG TRI-RECEPTOR AGONISTS AND USES THEREOF” (priority 2023, published 2024)
